Patent publication US20200102387A1 (CELGENE, published 2020)
One block for each binder: values may come before it.

Key:
[1] = molecular target: T1, SIRPβ extracellular domain (human, UniProt O00241 30-371); assay: SPR Biacore T200, antibody on Protein A chip, 1:1 Langmuir fit
T1 construct: also called hSIRPβ - ECD
T1 chain: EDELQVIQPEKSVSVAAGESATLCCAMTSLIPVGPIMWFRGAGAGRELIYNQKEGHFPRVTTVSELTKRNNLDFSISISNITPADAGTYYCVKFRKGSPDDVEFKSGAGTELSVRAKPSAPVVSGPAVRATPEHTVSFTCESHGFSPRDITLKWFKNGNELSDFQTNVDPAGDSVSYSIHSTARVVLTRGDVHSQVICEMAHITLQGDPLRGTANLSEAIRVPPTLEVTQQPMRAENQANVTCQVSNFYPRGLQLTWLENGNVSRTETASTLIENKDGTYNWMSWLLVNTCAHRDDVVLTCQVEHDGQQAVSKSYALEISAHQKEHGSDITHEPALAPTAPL

[2] = molecular target: T2, extracellular domain of SIRPα v1-DLN (e.g. SIRPα1) (human, UniProt P78324 31-373); assay: as above
T2 construct: also called hSIRPα - ECD (v1)

[3] = molecular target: T3, SIRPγ extracellular domain (human, UniProt Q9P1W8 29-360); assay: as above
T3 construct: also called hSIRPγ - ECD
T3 sequence (Q9P1W8 29-360 limits assumed): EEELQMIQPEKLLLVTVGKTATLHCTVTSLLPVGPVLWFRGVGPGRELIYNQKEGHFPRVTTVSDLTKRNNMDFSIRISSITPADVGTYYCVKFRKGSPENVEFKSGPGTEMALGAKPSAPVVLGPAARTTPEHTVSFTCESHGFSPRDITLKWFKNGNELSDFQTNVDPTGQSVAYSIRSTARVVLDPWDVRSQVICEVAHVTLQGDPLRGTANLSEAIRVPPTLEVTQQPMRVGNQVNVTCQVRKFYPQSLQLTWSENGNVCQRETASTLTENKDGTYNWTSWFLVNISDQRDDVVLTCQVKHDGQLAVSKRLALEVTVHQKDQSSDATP

[4] = molecular target: T4, mouse SIRPα on cells (mouse, UniProt P97797 32-513); assay: flow cytometry, C57BL/6-CD11b+ Cell Binding
T4 construct: whole, on cells; also called mouse SIRPα-CHO-K1; Ms SIRPα-CHO-K1
T4 sequence (looked up): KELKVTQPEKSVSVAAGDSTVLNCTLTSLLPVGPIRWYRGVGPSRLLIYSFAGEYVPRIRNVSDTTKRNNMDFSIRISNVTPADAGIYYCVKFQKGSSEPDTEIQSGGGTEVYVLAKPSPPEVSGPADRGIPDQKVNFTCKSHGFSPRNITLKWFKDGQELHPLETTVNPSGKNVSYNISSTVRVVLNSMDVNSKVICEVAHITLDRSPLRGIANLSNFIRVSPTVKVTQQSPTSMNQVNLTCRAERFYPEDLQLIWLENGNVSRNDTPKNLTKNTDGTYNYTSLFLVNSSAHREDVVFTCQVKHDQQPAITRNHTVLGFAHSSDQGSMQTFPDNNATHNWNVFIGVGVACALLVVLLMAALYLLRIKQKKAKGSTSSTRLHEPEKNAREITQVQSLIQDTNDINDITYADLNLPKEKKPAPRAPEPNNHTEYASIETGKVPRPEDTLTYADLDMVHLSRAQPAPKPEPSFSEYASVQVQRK

[5] = molecular target: T4, mouse SIRPα on cells; assay: flow cytometry competition on C57/BL6 macrophages, competitor mCD47-hFc 6.7 nM, antibody at 0.5 nM or more
[6] = molecular target: T5, mouse SIRPα-Fc (mouse); assay: BLI Octet, antigen-Fc on biosensor
T5 construct: a signal peptide may be part of the entry; also called Ms; Ms SIRPα-Fc

[7] = molecular target: T6, NOD/SCID mouse SIRPα-Fc (mouse (NOD/SCID)); assay: BLI Octet, antigen-Fc on biosensor
T6 construct: a signal peptide may be part of the entry; also called NOD/SCID Ms SIRPα-Fc
T6 sequence (chain, as listed by the source limits assumed): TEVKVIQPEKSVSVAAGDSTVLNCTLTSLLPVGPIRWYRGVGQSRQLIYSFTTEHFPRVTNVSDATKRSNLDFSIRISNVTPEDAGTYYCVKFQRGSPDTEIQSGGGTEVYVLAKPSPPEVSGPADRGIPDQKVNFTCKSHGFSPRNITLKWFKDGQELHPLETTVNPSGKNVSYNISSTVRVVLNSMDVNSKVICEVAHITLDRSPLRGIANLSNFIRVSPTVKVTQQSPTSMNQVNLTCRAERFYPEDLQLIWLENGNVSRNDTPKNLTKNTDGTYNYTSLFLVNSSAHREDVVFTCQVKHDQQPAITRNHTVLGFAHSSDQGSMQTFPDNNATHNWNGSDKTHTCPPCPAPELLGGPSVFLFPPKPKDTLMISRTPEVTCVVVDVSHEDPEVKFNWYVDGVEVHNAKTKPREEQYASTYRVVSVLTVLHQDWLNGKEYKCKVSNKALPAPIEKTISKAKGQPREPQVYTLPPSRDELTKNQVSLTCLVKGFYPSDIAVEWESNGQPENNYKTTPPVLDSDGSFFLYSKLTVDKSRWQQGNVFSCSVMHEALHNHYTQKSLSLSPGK

[8] = molecular target: T4, mouse SIRPα on cells; assay: cell binding, Ms SIRPα-CHO-K1 cells, 100 nM antibody
[9] = molecular target: T4, mouse SIRPα on cells; assay: flow cytometry, C57/BL6 macrophages, anti-human Fc detection; C57/BL6 macrophages (whole cells), not SIRPα-CHO-K1
[10] = molecular target: T7, cynomolgus SIRPα on cells (cynomolgus, UniProt P78324 31-373 (human entry)); assay: flow cytometry, cyno whole blood, gated CD14+ population, PE-conjugated antibody, one of two donors
T7 construct: also called cyno SIRPα-CHO; Cyno SIRPα-CHO-K1; not shown: Transmembrane and cytoplasmic region of cynomolgus SIRPα
T7 chain: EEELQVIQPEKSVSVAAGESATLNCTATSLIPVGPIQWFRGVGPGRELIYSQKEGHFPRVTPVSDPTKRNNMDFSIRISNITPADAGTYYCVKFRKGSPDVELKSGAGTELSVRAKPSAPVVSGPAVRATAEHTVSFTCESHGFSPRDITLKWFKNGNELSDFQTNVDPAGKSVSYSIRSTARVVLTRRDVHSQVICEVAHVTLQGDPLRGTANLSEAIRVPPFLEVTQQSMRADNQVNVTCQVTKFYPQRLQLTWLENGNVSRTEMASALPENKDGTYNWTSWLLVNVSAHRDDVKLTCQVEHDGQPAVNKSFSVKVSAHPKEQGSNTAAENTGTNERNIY

[11] = molecular target: T7, cynomolgus SIRPα on cells; assay: flow cytometry of cynomolgus whole blood, gated CD14+ cells, Donor 1
[12] = molecular target: T8, FcγR3A (CD16aV158) (human, UniProt P08637 17-254); assay: cell binding, FcγR-engineered HEK293 cells
T8 construct: whole, on cells
T8 sequence (P08637 17-254 F176V): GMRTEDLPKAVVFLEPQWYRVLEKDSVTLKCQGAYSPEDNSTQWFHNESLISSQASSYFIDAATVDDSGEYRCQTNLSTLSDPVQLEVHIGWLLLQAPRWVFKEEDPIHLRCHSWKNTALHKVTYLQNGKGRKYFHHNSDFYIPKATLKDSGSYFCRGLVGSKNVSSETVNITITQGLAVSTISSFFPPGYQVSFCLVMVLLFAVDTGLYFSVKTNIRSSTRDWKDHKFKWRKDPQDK

[13] = molecular target: T9, FcγR1 (CD64) (human, UniProt P12314 16-374); assay: cell binding, FcγR-engineered HEK293 cells
T9 construct: whole, on cells
T9 sequence (P12314 16-374): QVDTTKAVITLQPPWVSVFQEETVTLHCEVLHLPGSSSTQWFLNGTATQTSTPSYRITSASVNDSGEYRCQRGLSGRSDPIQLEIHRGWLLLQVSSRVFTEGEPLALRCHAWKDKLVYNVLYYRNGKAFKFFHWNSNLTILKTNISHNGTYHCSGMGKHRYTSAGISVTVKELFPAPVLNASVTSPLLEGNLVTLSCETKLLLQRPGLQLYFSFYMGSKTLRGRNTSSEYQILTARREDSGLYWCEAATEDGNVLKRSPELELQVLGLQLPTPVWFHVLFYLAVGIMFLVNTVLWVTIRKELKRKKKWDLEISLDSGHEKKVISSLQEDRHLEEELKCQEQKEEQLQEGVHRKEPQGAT

[14] = molecular target: T10, FcγR2B (human, UniProt P31994 43-310); assay: cell binding, FcγR-engineered HEK293 cells
T10 construct: whole, on cells
T10 sequence (looked up): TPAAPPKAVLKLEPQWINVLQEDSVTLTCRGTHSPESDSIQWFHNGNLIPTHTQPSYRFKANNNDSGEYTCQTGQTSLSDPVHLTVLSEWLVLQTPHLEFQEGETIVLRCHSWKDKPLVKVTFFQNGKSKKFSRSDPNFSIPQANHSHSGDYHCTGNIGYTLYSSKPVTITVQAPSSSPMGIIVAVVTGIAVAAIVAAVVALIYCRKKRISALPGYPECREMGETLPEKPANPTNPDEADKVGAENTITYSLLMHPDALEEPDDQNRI

[15] = molecular target: T7, cynomolgus SIRPα on cells; assay: flow cytometry of cynomolgus whole blood, gated CD14+ cells, Donor 2

B2: SIRPAB-21 with mouse IgG2a (antibody, V domains shown)
VH: QVQLQESGPGLVKPSQTLSLTCTVSGGSISSGGYYWSWIRQHPGKGLEWIGAIYYSGPIYYNPSLKSRVTISVDTSKNQFSLKLSSVTAADTAVYYCSKEGYHSGMDVWGQGTTVTVSS
VL: DIQMTQSPSSLSASVGDRVTITCQASDDISDYLNWYQQKPGKAPKLLIYDASNLETGVPSRFSGSGSGTDFTFTISSLQPEDIATYYCQQFAYLPWTFGGGTKVEIK
EC50 (read off the curve) [4]: ~0.3 nM | percent of mCD47 binding blocked [5]: > 90%

B3: SIRPAB-21 (antibody, human IgG1, kappa, V domains shown)
VH: B2 VH
VL: DIQMTQSPSSLSASVGDRVTITCQASDDISDYLNWYQQKPGKAPKLLIYDASNLETGVPSRFSGSGSGTDFTFTISSLQPEDIATYYCQQFAYLPWTFGGGTKVEIKR
Kd [6]: 1.46 nM | koff [6]: 0.000708 s⁻¹ | kon [6]: 490000 M⁻¹ s⁻¹ | Kd [7]: 5.43 nM | koff [7]: 0.0019 s⁻¹ | kon [7]: 350000 M⁻¹ s⁻¹ | fold increase over background (100 nM) [8]: 2440 fold

B5: SIRPAB-12-K322A (antibody, human IgG1, kappa)
light: DIQMTQSPSSVSASVGDRVTITCRASQGISSWLAWYQQKPGKAPKLLIYAASNLQSGVPSRFSGSGSGTDFTLTISSLQPEDFATYYCQQGASFPITFGGGTKVEIKRTVAAPSVFIFPPSDEQLKSGTASVVCLLNNFYPREAKVQWKVDNALQSGNSQESVTEQDSKDSTYSLSSTLTLSKADYEKHKVYACEVTHQGLSSPVTKSFNRGEC
heavy: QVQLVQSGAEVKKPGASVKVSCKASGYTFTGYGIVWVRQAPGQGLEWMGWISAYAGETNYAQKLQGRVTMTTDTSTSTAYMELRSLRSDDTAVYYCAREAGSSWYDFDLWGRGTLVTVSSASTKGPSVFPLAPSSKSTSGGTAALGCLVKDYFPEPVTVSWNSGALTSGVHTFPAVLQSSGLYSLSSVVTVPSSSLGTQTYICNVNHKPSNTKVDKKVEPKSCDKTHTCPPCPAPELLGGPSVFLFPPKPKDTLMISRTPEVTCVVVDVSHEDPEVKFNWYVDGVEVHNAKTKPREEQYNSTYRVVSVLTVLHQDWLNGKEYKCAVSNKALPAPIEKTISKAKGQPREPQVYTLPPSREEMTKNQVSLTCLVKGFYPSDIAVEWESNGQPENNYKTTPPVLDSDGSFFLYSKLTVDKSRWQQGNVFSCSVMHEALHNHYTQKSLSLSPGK
notes: human IgG1 with K322A
Kd [1]: 2.08 nM | Kd [2]: 0.424 nM | Kd [3]: 0.351 nM

B6: SIRPAB-11-4PE (antibody, human IgG4 S228P, kappa)
light: B5 light
heavy: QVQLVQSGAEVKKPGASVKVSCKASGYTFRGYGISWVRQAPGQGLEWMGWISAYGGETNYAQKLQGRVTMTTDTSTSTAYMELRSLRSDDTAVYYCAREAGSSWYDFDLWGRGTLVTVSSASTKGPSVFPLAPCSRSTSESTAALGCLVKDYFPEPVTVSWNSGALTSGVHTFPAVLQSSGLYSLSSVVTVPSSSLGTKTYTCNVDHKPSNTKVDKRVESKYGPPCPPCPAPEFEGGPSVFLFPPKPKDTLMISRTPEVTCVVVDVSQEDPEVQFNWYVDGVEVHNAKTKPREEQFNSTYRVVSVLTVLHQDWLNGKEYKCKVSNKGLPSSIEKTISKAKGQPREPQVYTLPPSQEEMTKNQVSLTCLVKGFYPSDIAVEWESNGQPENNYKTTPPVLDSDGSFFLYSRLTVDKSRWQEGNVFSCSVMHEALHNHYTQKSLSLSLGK
notes: human IgG4 with S228P and L235E; also called SIRPAB-11-IgG4PE; SIRPAB-11-IgG4PE-AF647
EC50 [10]: 0.43 nM | EC50 [11]: 0.426 nM | EC50 [12]: 2060 nM | EC50 [13]: 756 nM | EC50 [14]: 5180 nM | EC50 [15]: 0.39 nM

The next lines start with the values.

Kd [1]: 2.98 nM | Kd [2]: 3.65 nM | Kd [3]: 1.47 nM
B1: … ANTIBODY (SIRPα reference antibody with light chain SEQ ID NO:224 and heavy chain SEQ ID NO:225) (antibody, human IgG1, kappa, V domains shown)
VH: EVQLQQSGAELVKPGASVKLSCTASGFNIKDYYIHWVQQRTEQGLEWIGRIDPEDGETKYAPKFQDKATITADTSSNTAYLHLSSLTSEDTAVYYCARWGAYWGQGTLVTVSA
VL: QIVLTQSPAIMSASPGEKVTLTCSASSSVSSSYLYWYQQKPGSSPKLWIYSTSNLASGVPARFSGSGSGTSYSLTISSMEAEDAASYFCHQWSSYPRTFGAGTKLELKR

EC50 [9]: 6.7 nM
B4: mCD47-hFc (Fc fusion, mouse, UniProt Q61735 19-140, looked up, not shown: a dimerising Fc or GST)
chain: QLLFSNVNSIEFTSCNETVVIPCIVRNVEAQSTEEMFVKWKLNKSYIFIYDGNKNSTTTDQNFTSAKISVSDLINGIASLKMDKRDAMVGNYTCEVTELSREGKTVIELKNRTVSWFSPNEK
notes: also called recombinant mouse CD47
